The values below come from patent publication US5681819.

The target in assay [1] is receptor on the rat intestine surface that binds the C-tail of BAL (CT-receptors).
The target is the same in assay [2]. The source holds these as a separate data set.
For assay [3], the target named is receptor on the mouse small intestine surface that binds the C-tail of BAL (CT receptor). Description: 125I-labelled protein retained in ligated mouse small intestine segments after washing; mean of 3 experiments.
Assay [4] concerns the target receptor on the rat intestine surface that binds the C-tail of BAL (CT-receptors). The source holds these as a separate data set.

Take “rat endogenous intestinal BAL (from UniProt P07882) (enzyme)”: the cholesterol uptake of rat intestine after removal of bound BAL with EGTA in assay [1] is 16 % of control.

B1: isolated C-tail of human milk BAL (protein)
chain: ALPTVTDQEATPVPPTGDSEATPVPPTGDSETAPVPPTGDSGAPPVPPTGDSGAPPVPPTGDSGAPPVPPTGDSGAPPVPPTGDSGAPPVPPTGDSGAPPVPPTGDSGAPPVPPTGDAGPPPVPPTGDSGAPPVPPTGDSGAPPVTPTGDSETAPVPPTGDSGAPPVPPTGDSEAAPVPPTDDSK
modifications: about 8 to 10 O-linked oligosaccharides per C-tail molecule, most if not all on threonine (fucose, galactose, galactosamine, glucosamine)
Take B1: the cholesterol uptake of rat intestine segments from 3H cholesterol oleate in assay [2] was 10 % of control.

B2: recombinant truncated form of bile salt-activated lipase (T-BAL, residues 1-538 lacking the carboxy terminal end) (enzyme)
chain: AKLGAVYTEGGFVEGVNKKLGLLGDSVDIFKGIPFAAPTKALENPQPHPGWQGTLKAKNFKKRCLQATITQDSTYGDEDCLYLNIWVPQGRKQVSRDLPVMIWIYGGAFLMGSGHGANFLNNYLYDGEEIATRGNVIVVTFNYRVGPLGFLSTGDANLPGNYGLRDQHMAIAWVKRNIAAFGGDPNNITLFGESAGGASVSLQTLSPYNKGLIRRAISQSGVALSPWVIQKNPLFWAKKVAEKVGCPVGDAARMAQCLKVTDPRALTLAYKVPLAGLEYPMLHYVGFVPVIDGDFIPADPINLYANAADIDYIAGTNNMDGHIFASIDMPAINKGNKKVTEEDFYKLVSEFTITKGLRGAKTTFDVYTESWAQDPSQENKKKTVVDFETDVLFLVPTEIALAQHRANAKSAKTYAYLFSHPSRMPVYPKWVGADHADDIQYVFGKPFATPTGYRPQDRTVSKAMIAYWTNFAKTGDPNMGDSAVPTHWEPYTTENSGYLEITKKMGSSSMKRSLRTNFLRYWTLTYLALPTVTDQEAT
modifications: not glycosylated (expressed in E. coli); 125I-labelled in the mouse intestine binding experiment
B2: the Bound in assay [3] came to 33 ng/cm. Besides, the Cholesterol Uptake in assay [4] was 7.32 nmol/g/h.

B3: native human milk bile salt-activated lipase (enzyme)
chain: AKLGAVYTEGGFVEGVNKKLGLLGDSVDIFKGIPFAAPTKALENPQPHPGWQGTLKAKNFKKRCLQATITQDSTYGDEDCLYLNIWVPQGRKQVSRDLPVMIWIYGGAFLMGSGHGANFLNNYLYDGEEIATRGNVIVVTFNYRVGPLGFLSTGDANLPGNYGLRDQHMAIAWVKRNIAAFGGDPNNITLFGESAGGASVSLQTLSPYNKGLIRRAISQSGVALSPWVIQKNPLFWAKKVAEKVGCPVGDAARMAQCLKVTDPRALTLAYKVPLAGLEYPMLHYVGFVPVIDGDFIPADPINLYANAADIDYIAGTNNMDGHIFASIDMPAINKGNKKVTEEDFYKLVSEFTITKGLRGAKTTFDVYTESWAQDPSQENKKKTVVDFETDVLFLVPTEIALAQHRANAKSAKTYAYLFSHPSRMPVYPKWVGADHADDIQYVFGKPFATPTGYRPQDRTVSKAMIAYWTNFAKTGDPNMGDSAVPTHWEPYTTENSGYLEITKKMGSSSMKRSLRTNFLRYWTLTYLALPTVTDQEATPVPPTGDSEATPVPPTGDSETAPVPPTGDSGAPPVPPTGDSGAPPVPPTGDSGAPPVPPTGDSGAPPVPPTGDSGAPPVPPTGDSGAPPVPPTGDSGAPPVPPTGDAGPPPVPPTGDSGAPPVPPTGDSGAPPVTPTGDSETAPVPPTGDSGAPPVPPTGDSEAAPVPPTDDSKEAQMPAVIRF
modifications: O-linked oligosaccharides in the C-tail, primarily on threonine; 125I-labelled in the mouse intestine binding experiment
In assay [3], B3 returned a Bound of 384 ng/cm. Besides, in assay [4], the Cholesterol Uptake came out at 14.4 nmol/g/h.
